In paper PMC10499876, “Arabidopsis TCP4 transcription factor inhibits high temperature-induced homeotic conversion of ovules”:

Target: T1, TCP4 DNA binding domain (Arabidopsis thaliana, UniProt Q8LPR5 45-103)
T1 sequence: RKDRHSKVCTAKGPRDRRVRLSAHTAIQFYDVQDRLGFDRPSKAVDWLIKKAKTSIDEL
Assay: EMSA; EMSA: ~180 ng protein + ~200 ng dsDNA, 4 °C 20 min; DNA annealed in 25 mM Tris, 100 mM NaCl pH 8.0; 7% native PAGE in 0.5x TBE, ethidium bromide; binding buffer not stated
Details: protein: recombinant; tags: C-terminal His (pET-21b); chain copies: 2; blunt

B1: CRC promoter probe (dsDNA)
DNA 1: CAGGAAAGGACCATTCTTAA
DNA 2: TTAAGAATGGTCCTTTCCTG
binding result: binds
